From patent US20260232732A1 (FUNDACI INSTITUT DE RECERCA CONTRA LA LEUC MIA JOSEP …, published 2026)
Where no end group is shown, it is not given here.

T1: naked peptide TDFTSPIPNM (human)
T1 peptide: TDFTSPIPNM

T2: naked peptide MTPTDFTSPI (human)
T2 peptide: MTPTDFTSPI

T3: naked peptide FNFTDFYCEK (human)
T3 peptide: FNFTDFYCEK

T4: naked peptide TSPIPNMADD (human)
T4 peptide: TSPIPNMADD

T5: naked peptide KNNVRQFAS (human)
T5 peptide: KNNVRQFAS

T6: naked peptide DYGSESTSSM (human)
T6 peptide: DYGSESTSSM

T7: naked peptide YCEKNNVRQF (human)
T7 peptide: YCEKNNVRQF

T8: naked peptide SESTSSMEDY (human)
T8 peptide: SESTSSMEDY

T9: naked peptide TSSMEDYVNF (human)
T9 peptide: TSSMEDYVNF

T10: naked peptide MADDYGSEST (human)
T10 peptide: MADDYGSEST

T11: naked peptide SSMEDYVNFN (human)
T11 peptide: SSMEDYVNFN

T12: naked peptide YVNFNFTDFY (human)
T12 peptide: YVNFNFTDFY

T13: naked peptide SMEDYVNFNF (human)
T13 peptide: SMEDYVNFNF

T14: naked peptide IPNMADDYGS (human)
T14 peptide: IPNMADDYGS

T15: naked peptide TDFYCEKNNV (human)
T15 peptide: TDFYCEKNNV

T16: naked peptide MEDYVNFNFT (human)
T16 peptide: MEDYVNFNFT

T17: antigen peptide-BSA (immunisation peptide #1 MADDYGSESTSSMEDYVNFNF-C conjugated to BSA) (human, extra C-terminal Cys conjugated to BSA)
T17 construct: also called Positive control antigen peptide-BSA; MADDY peptide
T17 peptide: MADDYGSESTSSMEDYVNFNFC

T18: Peptide 2, non-conjugated (GSESTSSMED-C) (human)
T18 construct: With the extra C-terminal Cys
T18 peptide: GSESTSSMEDC

T19: Peptide 1-BSA (MADDYGSEST-C conjugated to BSA) (human)
T19 peptide: MADDYGSESTC(BSA)

T20: Peptide 2-BSA (GSESTSSMED-C conjugated to BSA) (human)
T20 peptide: GSESTSSMEDC(BSA)

T21: Peptide 3-BSA (SSMEDYVNFN-C conjugated to BSA) (human)
T21 peptide: SSMEDYVNFNC(BSA)

T22: Peptide 3, non-conjugated (SSMEDYVNFN-C) (human)
T22 construct: With the extra C-terminal Cys
T22 peptide: SSMEDYVNFNC

T23: Peptide 1, non-conjugated (MADDYGSEST-C) (human)
T23 construct: With the extra C-terminal Cys
T23 peptide: MADDYGSESTC

T24: Peptide 4, non-conjugated (SMEDYVNFNF-C) (human)
T24 construct: With the extra C-terminal Cys
T24 peptide: SMEDYVNFNFC

T25: Peptide 4-BSA (SMEDYVNFNF-C conjugated to BSA) (human)
T25 peptide: SMEDYVNFNFC(BSA)

B1: Comparative antibody 2 (Comp-2) scFv, 243LO326 (VH SEQ ID NO: 51 and VL SEQ ID NO: 52 of WO 2022/195028 A2), His-tagged (scFv)
scFv: QVQLVQSGAEVKKPGASVKVSCKASGYTFTSYWMHWVRQAPGQGLEWIGVIYPGNSDTRYNQKFKGRVTITRDTSASTAYMELSSLRSEDTAVYYCTRDYYSNYVYYYAMDYWGQGTTVTVSSGGGGSGGGGSGGGGSGGGGSDIVMTQTPLSLPVTPGEPASISCRSSQSLVHPNRNTYLHWYLQKPGQSPQLLIYKVSNRFSGVPDRFSGSGSGTDFTLKISRVEAEDVGVYYCSQSTHVPWTFGQGTKLEIKHHHHHH
B2: anti-CCR9 antibody clone 115 (murine, from hybridoma #115) (antibody, V domains shown)
VH: QVQLKQSGPELVKPGTSVRVSCTASGYSFTDYIIYWVKQSHGRSLEWIGYIDPNNYNTRYSQKFKGKATLTVDKSSTSAFMHLNSLTSDDSAVYYCARDVYWGQGTTLTVSS
VL: DVVMTQTPLSLTVSLGDQASISCRSSQSLVHSNGKTYLQWYLQKPGQSPKLLIYKVSNRFSGVPDRFSGSGSGTDFTLKISRVEAEDLGVYFCAQSTHVWTFGGGTKLEIKR
notes: Mouse IgG1
B3: Comparative antibody 3 (Comp-3) scFv, SR_92R (Somovilla-Crespo et al. 2018), His-tagged (scFv)
scFv: EVKLEESGGGLVQPGGSMKLSCVASGFTFNKFWMNWVRQSPEKGLEWVAEIRLKSNNYATHYAESVKGRFTISRDDSKSSVYLQMNNLRAEDTGIYYCASDGWFAYWGQGTLVTVSAGGGGSGGGGSGGGGSGGGGSDVVMTQTPLSLPVSLGDQASISCRSSQSLVHSNGNTYLNWCLQRPGQSPKSLIYKVSNRFSGVPDRFSGSGSGTDFTLKISRVEAEDLGVYFCSQSTHFPRTFGGGTKLEIKRHHHHHH

Columns and labels:
naked peptide TDFTSPIPNM = target: T1, naked peptide TDFTSPIPNM; experiment: ELISA naked peptide; scFv 1 ug/mL; repI
Procedure: (§1) The peptides were synthesized naked or with a N-terminal Biotin modification with a purity of >98%. All four scFvs were verified by ELISA that can be detected with anti-His antibodies. ELISA was performed for scFv-peptide binding validation. Briefly, naked peptides were coated (50 μg/mL) in 0.58M carbonate-bicarbonate buffer pH9.5, 100 μL/well, 4° C. O/N. Then after blocking (3% BSA-PBS, 300 μL/well 37° C. 1.5 h) and washing (PBS+Tween-20 0.05% v/v (0.05% PBST), wells were incubated with each purified scFv antibody at concentration of 1 μg/mL in PBS at 37° C. 1 h. After washing (0.05% PBST), wells were incubated with secondary antibodies (goat anti-His IgG-HRP) in PBS, 37° C., 30 min. After washing, and incubation with TMB substrate, reactions were stopped with 2M HCl and reading was quantified at OD450.
(§2) Then a library of overlapping peptides were designed and constructed separately to produce 16 different peptides, covering full antigen sequence of total 48 aa. Peptide size was 10aa, with 7aa overlapping and ELISA screening of scFv against each peptide was performed in duplicate. Screening was performed using naked peptides in a standard plate or biotinylated peptides using avidin-plates.

naked peptide MTPTDFTSPI = target: T2, naked peptide MTPTDFTSPI; experiment: ELISA naked peptide; scFv 1 ug/mL; repI
Procedure: as §1, §2

naked peptide FNFTDFYCEK = target: T3, naked peptide FNFTDFYCEK; experiment: ELISA naked peptide; scFv 1 ug/mL; repI
Procedure: as §1, §2

naked peptide TSPIPNMADD = target: T4, naked peptide TSPIPNMADD; experiment: ELISA naked peptide; scFv 1 ug/mL; repI
Procedure: as §1, §2

naked peptide KNNVRQFAS = target: T5, naked peptide KNNVRQFAS; experiment: ELISA naked peptide; scFv 1 ug/mL; repI
Procedure: as §1, §2

naked peptide DYGSESTSSM = target: T6, naked peptide DYGSESTSSM; experiment: ELISA naked peptide; scFv 1 ug/mL; repI
Procedure: as §1, §2

naked peptide YCEKNNVRQF = target: T7, naked peptide YCEKNNVRQF; experiment: ELISA naked peptide; scFv 1 ug/mL; repI
Procedure: as §1, §2

naked peptide SESTSSMEDY = target: T8, naked peptide SESTSSMEDY; experiment: ELISA naked peptide; scFv 1 ug/mL; repI
Procedure: as §1, §2

naked peptide TSSMEDYVNF = target: T9, naked peptide TSSMEDYVNF; experiment: ELISA naked peptide; scFv 1 ug/mL; repI
Procedure: as §1, §2

naked peptide MADDYGSEST = target: T10, naked peptide MADDYGSEST; experiment: ELISA naked peptide; scFv 1 ug/mL; repI
Procedure: as §1, §2

naked peptide SSMEDYVNFN = target: T11, naked peptide SSMEDYVNFN; experiment: ELISA naked peptide; scFv 1 ug/mL; repI
Procedure: as §1, §2

naked peptide YVNFNFTDFY = target: T12, naked peptide YVNFNFTDFY; experiment: ELISA naked peptide; scFv 1 ug/mL; repI
Procedure: as §1, §2

naked peptide SMEDYVNFNF = target: T13, naked peptide SMEDYVNFNF; experiment: ELISA naked peptide; scFv 1 ug/mL; repI
Procedure: as §1, §2

naked peptide IPNMADDYGS = target: T14, naked peptide IPNMADDYGS; experiment: ELISA naked peptide; scFv 1 ug/mL; repI
Procedure: as §1, §2

naked peptide TDFYCEKNNV = target: T15, naked peptide TDFYCEKNNV; experiment: ELISA naked peptide; scFv 1 ug/mL; repI
Procedure: as §1, §2

naked peptide MEDYVNFNFT = target: T16, naked peptide MEDYVNFNFT; experiment: ELISA naked peptide; scFv 1 ug/mL; repI
Procedure: as §1, §2

[1] = target: T17, antigen peptide-BSA (immunisation …); experiment: ELISA; Ab 0.5 ug/mL; repII
Procedure: (§3) In brief, plates with each non-conjugated peptide (50 μg/mL) or BSA-conjugated peptide (5 μg/mL) were coated in 0.58M carbonate-bicarbonate buffer pH9.5, 100 μL/well, at 4° C. […] After washing, wells were incubated with the 3, 3′,5,5′-Tetramethylbenzidine (TMB) HRP substrate and reactions were stopped with 2M HCl and OD450 was recorded.

[2] = target: T18, Peptide 2, non-conjugated (GSESTSSMED-C); experiment: ELISA; Ab 0.5 ug/mL; repII
Procedure: as §3

[3] = target: T19, Peptide 1-BSA (MADDYGSEST-C conjugated …); experiment: ELISA; Ab 0.5 ug/mL; repII
Procedure: as §3

[4] = target: T20, Peptide 2-BSA (GSESTSSMED-C conjugated …); experiment: ELISA; Ab 0.5 ug/mL; repII
Procedure: as §3

[5] = target: T21, Peptide 3-BSA (SSMEDYVNFN-C conjugated …); experiment: ELISA; Ab 0.5 ug/mL; repII
Procedure: as §3

[6] = target: T22, Peptide 3, non-conjugated (SSMEDYVNFN-C); experiment: ELISA; Ab 0.5 ug/mL; repII
Procedure: as §3

[7] = target: T23, Peptide 1, non-conjugated (MADDYGSEST-C); experiment: ELISA; Ab 0.5 ug/mL; repII
Procedure: as §3

[8] = target: T24, Peptide 4, non-conjugated (SMEDYVNFNF-C); experiment: ELISA; Ab 0.5 ug/mL; repII
Procedure: as §3

[9] = target: T26, BSA (negative control coating) (bovine, UniProt P02769 25-607); experiment: ELISA; Ab 0.5 ug/mL; repII
T26 construct: also called Negative control BSA
Procedure: as §3

[10] = target: T25, Peptide 4-BSA (SMEDYVNFNF-C conjugated …); experiment: ELISA; Ab 0.5 ug/mL; repII
Procedure: as §3

T26 sequence (P02769 25-607 limits assumed): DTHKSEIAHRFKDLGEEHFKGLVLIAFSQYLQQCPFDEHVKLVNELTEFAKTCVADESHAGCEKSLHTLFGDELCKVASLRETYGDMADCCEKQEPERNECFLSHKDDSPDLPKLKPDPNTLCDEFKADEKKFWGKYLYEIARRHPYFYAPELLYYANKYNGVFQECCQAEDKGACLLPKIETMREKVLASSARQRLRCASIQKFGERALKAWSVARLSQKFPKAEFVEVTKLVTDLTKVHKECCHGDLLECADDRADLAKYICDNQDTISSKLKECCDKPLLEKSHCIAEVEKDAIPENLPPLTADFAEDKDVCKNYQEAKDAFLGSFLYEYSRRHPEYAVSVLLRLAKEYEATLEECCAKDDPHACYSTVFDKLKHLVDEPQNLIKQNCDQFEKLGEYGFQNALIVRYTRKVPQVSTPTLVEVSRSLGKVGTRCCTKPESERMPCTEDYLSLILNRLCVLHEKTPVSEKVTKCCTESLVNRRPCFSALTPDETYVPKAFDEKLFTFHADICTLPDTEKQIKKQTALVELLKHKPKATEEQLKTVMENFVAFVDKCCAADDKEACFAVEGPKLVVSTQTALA

Row | Binder | OD450 (naked peptide TDFTSPIPNM) [OD] | OD450 (naked peptide MTPTDFTSPI) [OD] | OD450 (naked peptide FNFTDFYCEK) [OD] | OD450 (naked peptide TSPIPNMADD) [OD] | OD450 (naked peptide KNNVRQFAS) [OD] | OD450 (naked peptide DYGSESTSSM) [OD] | OD450 (naked peptide YCEKNNVRQF) [OD] | OD450 (naked peptide SESTSSMEDY) [OD] | OD450 (naked peptide TSSMEDYVNF) [OD] | OD450 (naked peptide MADDYGSEST) [OD] | OD450 (naked peptide SSMEDYVNFN) [OD] | OD450 (naked peptide YVNFNFTDFY) [OD] | OD450 (naked peptide SMEDYVNFNF) [OD] | OD450 (naked peptide IPNMADDYGS) [OD] | OD450 (naked peptide TDFYCEKNNV) [OD] | OD450 (naked peptide MEDYVNFNFT) [OD] | other results
1 | B1 | 0.04 | 0.03 | 0.03 | 0.02 | 0.04 | 0.02 | 0.05 | 0.03 | 0.03 | 0.02 | 0.1 | 0.02 | 0.03 | 0.02 | 0.03 | 0.04 | 
2 | B2 |  |  |  |  |  |  |  |  |  |  |  |  |  |  |  |  | OD450 [1]: 2.57 OD; OD450 [2]: 0.02 OD; OD450 [3]: 0.02 OD; OD450 [4]: 0.02 OD; OD450 [5]: 2.06 OD; OD450 [6]: 1.83 OD; OD450 [7]: 0.02 OD; OD450 [8]: 2.37 OD; OD450 [9]: 0.02 OD; OD450 [10]: 2.65 OD
3 | B3 | 0.07 | 0.02 | 0.05 | 0.02 | 0.05 | 0.03 | 0.04 | 0.03 | 0.04 | 0.02 | 0.09 | 0.03 | 0.05 | 0.02 | 0.03 | 0.05 | 
